For the assay, the target named is T1, His-AGB1 (Arabidopsis, UniProt P49177 1-377).
T1 construct: AGB1 of Arabidopsis, full length, cloned into pCOLD-TF; as the empty pCOLD-TF vector gives His-TF, the fusion probably carries trigger factor between the His tag and AGB1 (surmised); also called His-tagged AGB1; source: E. coli (Rosetta), pCOLD-TF, purified; not shown: His, N-terminal, kept
T1 sequence (looked up): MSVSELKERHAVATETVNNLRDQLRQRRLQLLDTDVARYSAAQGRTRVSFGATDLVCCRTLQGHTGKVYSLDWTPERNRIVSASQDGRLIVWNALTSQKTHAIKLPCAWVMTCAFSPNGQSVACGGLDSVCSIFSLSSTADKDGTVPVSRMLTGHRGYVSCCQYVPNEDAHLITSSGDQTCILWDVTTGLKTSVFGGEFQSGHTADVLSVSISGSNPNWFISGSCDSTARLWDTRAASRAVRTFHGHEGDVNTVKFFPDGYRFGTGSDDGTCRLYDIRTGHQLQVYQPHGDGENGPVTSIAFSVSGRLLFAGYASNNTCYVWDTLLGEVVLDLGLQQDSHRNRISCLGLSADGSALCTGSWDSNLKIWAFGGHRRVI
Briefly: pull-down; GST-BES1 held on glutathione beads (MagneGST), His-AGB1 or His-TF added, lysis buffer without EDTA, 2 h at 4°C; prey detected with anti-His antibody. To be noted: both partners purified.

B1: GST-BES1 (natural protein, Arabidopsis, UniProt Q9LN63 1-335, looked up)
chain: MTSDGATSTSAAAAAAAMATRRKPSWRERENNRRRERRRRAVAAKIYTGLRAQGNYNLPKHCDNNEVLKALCSEAGWVVEEDGTTYRKGHKPLPGDMAGSSSRATPYSSHNQSPLSSTFDSPILSYQVSPSSSSFPSPSRVGDPHNISTIFPFLRNGGIPSSLPPLRISNSAPVTPPVSSPTSRNPKPLPTWESFTKQSMSMAAKQSMTSLNYPFYAVSAPASPTHHRQFHAPATIPECDESDSSTVDSGHWISFQKFAQQQPFSASMVPTSPTFNLVKPAPQQLSPNTAAIQEIGQSSEFKFENSQVKPWEGERIHDVAMEDLELTLGNGKAHS
notes: BES1 of Arabidopsis, full length, cloned into pGEX-4T-1; also called GST-tagged BES1; source: E. coli (Rosetta), pGEX-4T-1, purified; not shown: GST, N-terminal, kept
Consider B1, for which the binding result is “binds”.

(Values after PMC5767185, “Arabidopsis G-Protein β Subunit AGB1 Interacts with BES1 to Regulate Brassinosteroid Signaling and Cell Elongation” (Frontiers in Plant Science, 2017).)
